pKd: −log10 of the molar value.

Three substances from PMC5529513 can be followed below.

Assay [1] deals with ephrin-A5 Fc (UniProt P52803). Briefly: SPR; BIAcore T200; ephrin-A5 Fc amine-coupled on CM5 chip; EphA4 Fc proteins 500 to 50 nM in 10 mM HEPES pH 7.4, 150 mM NaCl, 3 mM EDTA, 0.05% Surfactant P20; 30 µl/min; bivalent analyte model and steady state affinity model.
The target of assay [2] is EphA4 Fc (wild type): human EphA4 ectodomain fused to IgG4 Fc (human) (UniProt P54764). Briefly: AUC; sedimentation velocity, 10 mM potassium phosphate pH 7.6, 20 °C, 40,000 rpm, c(s) fit with SEDFIT; oligomeric state of the Fc fusion.
In assay [3] the target is triple mutant of EphA4 Fc (N235Q, N340Q, N408Q) (human) (UniProt P54764). The assay is described as above.
The target of assay [4] is ephrin-A5 Fc (UniProt P52803). The experiment in a line: SPR. To be noted: Fc fusion.
Assay [5] deals with ephrin-A5 Fc (UniProt P52803). Briefly: ELISA. To be noted: Fc fusion.
The target in assay [6] is ephrin-B3 Fc (UniProt Q15768). Briefly: ELISA. To be noted: Fc fusion.
Sequence of UniProt Q15768 (Q15768 28-226): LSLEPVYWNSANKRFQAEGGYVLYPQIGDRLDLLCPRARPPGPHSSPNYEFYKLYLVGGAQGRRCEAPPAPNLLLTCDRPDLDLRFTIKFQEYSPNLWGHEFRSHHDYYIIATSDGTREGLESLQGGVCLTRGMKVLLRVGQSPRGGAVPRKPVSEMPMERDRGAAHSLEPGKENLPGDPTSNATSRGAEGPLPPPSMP

As to “EphA4 Fc (wild type): human EphA4 ectodomain fused to IgG4 Fc (from UniProt P54764-1 20-547) (Fc fusion)”, in assay [1], the ka1 (bivalent analyte model) was determined as 56300 M⁻¹ s⁻¹, the ka2 (bivalent analyte model) came to 0.000112 RU^-1s^-1, the kd1 (bivalent analyte model) amounted to 0.0224 s⁻¹ and the kd2 (bivalent analyte model) is 0.00106 s⁻¹. This substance had a stoichiometry N in assay [2] of 2.

For the substance “triple mutant of EphA4 Fc (N235Q, N340Q, N408Q) (from UniProt P54764-1 20-547) (Fc fusion)”, in assay [1], the ka1 (bivalent analyte model) was 115000 M⁻¹ s⁻¹, the ka2 (bivalent analyte model) turned out to be 5.4e-05 RU^-1s^-1, the kd1 (bivalent analyte model) came out at 0.0184 s⁻¹ and the kd2 (bivalent analyte model) turned out to be 2.66e-06 s⁻¹. In assay [3], the stoichiometry N worked out at 2.

For “EphA4 Fc (wild type): human EphA4 ectodomain fused to IgG4 Fc (from UniProt P54764-1 20-547)”, the pKd was 6.50 in assay [4], 9.29 in assay [5] and 7.62 in assay [6].
